Key:
[1] = target: Purified OBL domain of NfeD (Staphylococcus aureus); test: SEC; purified NfeD variants at ~60 μM, Superdex 75 Increase 10/300 GL, 300 mM NaCl, 50 mM Tris-HCl pH 8.0, 10% glycerol, 0.02% DDM
[2] = target: Purified native NfeD (Staphylococcus aureus); test: as above
[3] = target: Purified PHB domain of FloA (Staphylococcus aureus); test: SEC; purified FloA variants at ~60 μM, Superdex 200 Increase 10/300 GL, 300 mM NaCl, 50 mM Tris-HCl pH 8.0, 10% glycerol, 0.02% DDM
[4] = target: PHB-CC_(ΔEA4), PHB-CC variant with A286E287A288 deleted (Staphylococcus aureus); test: as above

Substance “Purified OBL domain of NfeD (domain or fragment)” has a stoichiometry N [1] of 2.
Substance Purified native NfeD (natural protein) has a stoichiometry N [2] of 2.
Work on “Purified PHB domain of FloA (domain or fragment)” yielded a stoichiometry N [3] of 2.
In the case of “PHB-CC_(ΔEA4), PHB-CC variant with A286E287A288 deleted (domain or fragment)”, the stoichiometry N [4] is reported as 2.

— PMC11222466
